Reference: publication PMC7350215, “Features of the Human Antibody Response against the Respiratory Syncytial Virus Surface Glycoprotein G” (Vaccines, 2020)

Target: the molecule itself
Assay: non-reducing SDS-PAGE with immunoblot; purified A2-G separated under non-reducing or reducing conditions, blot stained with anti-His antibodies

B1: Recombinant RSV A2-derived G protein (extracellular domain of the attachment glycoprotein G, amino acids 66 to 298) (domain or fragment)
chain: NHKVTPTTAIIQDATSQIKNTTPTYLTQNPQLGISPSNPSEITSQITTILASTTPGVKSTLQSTTVKTKNTTTTQTQPSKPTTKQRQNKPPSKPNNDFHFEVFNFVPCSICSNNPTCWAICKRIPNKKPGKKTTTKPTKKPTLKTTKKDPKPQTTKSKEVPTTKPTEEPTINTTKTNIITTLLTSNTTGNPELTSQMETFHSTSSEGNPSPSQVSTTSEYPSQPSSPPNTPRQ
notes: Attachment glycoprotein G of respiratory syncytial virus strain A2, UniProtKB/Swiss-Prot P03423.1, extracellular domain, amino acids 66 to 298 (N66 to Q298); also called A2-G; recombinant His-tagged A2-G; not shown: His6, C-terminal, kept
B1: binds.
